Here are results for 39 variants from the RNAGym collection of RNA variant scans (doi:10.7554/elife.80360).

B1: CPEB3 Ribozyme (parent)
chain: GGGGGCCACAGCAGAAGCGUUCACGUCGCGGCCCCUGUCAGAUUCUGGUGAAUCUGCGAAUUCUGCUGU

In this series the parent is B1. The series is described as follows: self-cleavage, relative activity (ratio to wild type); higher = more cleavage; co-transcriptional.
For CGGGGCCACAGAAGAAGCGUUCACGUCGCGGCCCCUGUCAGAUUCUGGUGAAUCUGCGAAUUCUGCUGU, the self-cleavage came to 0.164.
Turning to CGGGGCCACAUCAGAAGCGUUCACGUCGCGGCCCCUGUCAGAUUCUGGUGAAUCUGCGAAUUCUGCUGU, the self-cleavage was found to be 0.164.
Consider CGGGGCCACAACAGAAGCGUUCACGUCGCGGCCCCUGUCAGAUUCUGGUGAAUCUGCGAAUUCUGCUGU, for which the self-cleavage is 0.14.
Regarding CGGGGCCACACCAGAAGCGUUCACGUCGCGGCCCCUGUCAGAUUCUGGUGAAUCUGCGAAUUCUGCUGU, the self-cleavage is 0.165.
For CGGGGCCACAGCAGAAGCGUUCACGUCGCGGCCCCUGUCAGAUUCUGGUGAAUCUGCGACUUCUGCUGU, the self-cleavage came out at 0.0756.
For CGGGGCCACAGCAGAAGCGUUCACGUCGCGGCCCCUGUCAGAUUCUGGUGAAUCUGCGAGUUCUGCUGU the value was 0.273; for CGGGGCCACAGCAGAAGCGUUCACGUCGCGGCCCCUGUCAGAUUCUGGUGAAUCUGGGAAUUCUGCUGU, 0.104; for CGGGGCCACAGCAGAAGCGUUCACGUCGCGGCCCCUGUCAGAUUCUGGUGAAUCUGAGAAUUCUGCUGU, 0.116.
To CGGGUCCACAGCAGAAGCGUUCACGUCGCGGCCCCUGUCAGAUUCUGGUGAAUCUGCGAAUUCUGCUGU belongs 0.114; to CGGGGCCAGAGCAGAAGCGUUCACGUCGCGGCCCCUGUCAGAUUCUGGUGAAUCUGCGAAUUCUGCUGU, 0.203.
As for CGGGGCCAUAGCAGAAGCGUUCACGUCGCGGCCCCUGUCAGAUUCUGGUGAAUCUGCGAAUUCUGCUGU, the self-cleavage is 0.246.
For CGGGGGCACAGCAGAAGCGUUCACGUCGCGGCCCCUGUCAGAUUCUGGUGAAUCUGCGAAUUCUGCUGU the value was 0.658; for CGGGGUCACAGCAGAAGCGUUCACGUCGCGGCCCCUGUCAGAUUCUGGUGAAUCUGCGAAUUCUGCUGU, 0.282.
To CGGGGACACAGCAGAAGCGUUCACGUCGCGGCCCCUGUCAGAUUCUGGUGAAUCUGCGAAUUCUGCUGU belongs 0.26; to CGGGGCCACAGCAGAAGCAUUCACGUCGCGGCCCCUGUCAGAUUCUGGUGAAUCUGCGAAUUCUGCUGU, 0.086; to CGUGGCCACAGCAGAAGCGUUCACGUCGCGGCCCCUGUCAGAUUCUGGUGAAUCUGCGAAUUCUGCUGU, 0.0766.
With CGAGGCCACAGCAGAAGCGUUCACGUCGCGGCCCCUGUCAGAUUCUGGUGAAUCUGCGAAUUCUGCUGU, the self-cleavage stood at 0.174.
Regarding CGGGGCCACAGCAGAAGCGUUCACGUCGCGGCCGCUGUCAGAUUCUGGUGAAUCUGCGAAUUCUGCUGU, the self-cleavage turned out to be 0.159.
With CGGGGCCACAGCAGAAGCGUUCACGUCGCGGCCUCUGUCAGAUUCUGGUGAAUCUGCGAAUUCUGCUGU, the self-cleavage amounted to 0.236.
CGGGGCCACAGCAGAAGCGUUCACGUCGCGGCCACUGUCAGAUUCUGGUGAAUCUGCGAAUUCUGCUGU: the self-cleavage came to 0.152.
As to CGGGGCCACAGCAGAAGCGUUCACGUCGCCGCCCCUGUCAGAUUCUGGUGAAUCUGCGAAUUCUGCUGU, the self-cleavage came out at 0.174.
To CGGGGCCACAGCAGAAGCGUUCACGUCGCAGCCCCUGUCAGAUUCUGGUGAAUCUGCGAAUUCUGCUGU belongs 0.192; to CGGGGCCACAGCAGAAGCGUUCACGUCGCGGCACCUGUCAGAUUCUGGUGAAUCUGCGAAUUCUGCUGU, 0.197.
CGGGGCCACAGCAGAAGCGUUCACGUCGCGGCUCCUGUCAGAUUCUGGUGAAUCUGCGAAUUCUGCUGU: the self-cleavage is 0.282.
For CGGGGCCACAGCAGAAGCGUUCACGUCGCGGCGCCUGUCAGAUUCUGGUGAAUCUGCGAAUUCUGCUGU the value was 0.118; for CGGGGCCACAGCAGAAGCGUUCACGUCGCGGCCCCUGUCAGAUUCUGGUGAAUCUGCGAAUUUUGCUGU, 0.164; for CGGGGCCACAGCAGAAGCGUUCACGUCGCGGCCCCUGUCAGAUUCUGGUGAAUCUGCGAAUUAUGCUGU, 0.199.
In the case of CGGGGCCACAGCAGAAGCGUUCACGUCGCGGCCCCUGUUAGAUUCUGGUGAAUCUGCGAAUUCUGCUGU, the self-cleavage is 0.227.
To CGGGGCCACAGCAGAAGCGUUCACGUCGCGGCCCCUGUGAGAUUCUGGUGAAUCUGCGAAUUCUGCUGU belongs 0.217; to CGGGGCCACAGCAGAAGCGUUCACGUCGCGGCCCCUGUCAGAUUCUGGUGAAUCUGCGAAUUCUGUUGU, 0.172.
Take CGGGGCCACAGCAGAAGCGUUCACGUCGCGGCCCCUGUCAGAUUCUGGUGAAUCUGCGAAUUCUGAUGU: the self-cleavage turned out to be 0.226.
Take CGGGGCCACAGCAGAAGCGUUCACGUCGCGGCCCCUGUCAGAUUCUCGUGAAUCUGCGAAUUCUGCUGU: the self-cleavage amounted to 0.213.
For CGGGGCCACAGCAGAAGCGUUCACGUCGCGGCCCCUGUCAGAUUCUAGUGAAUCUGCGAAUUCUGCUGU the value was 0.242; for CGGGGCCACAGCAGAAGCGUUCACCUCGCGGCCCCUGUCAGAUUCUGGUGAAUCUGCGAAUUCUGCUGU, 0.103.
To CGGGGCCACAGCAGAAGCGUUCACUUCGCGGCCCCUGUCAGAUUCUGGUGAAUCUGCGAAUUCUGCUGU belongs 0.0853; to CGGGGCCACAGCAGAAGCGUUCACAUCGCGGCCCCUGUCAGAUUCUGGUGAAUCUGCGAAUUCUGCUGU, 0.0736; to CGGGGCCACAGCAGAAGCGUUCACGUCGCGGCCCCUGUCAGAUUUUGGUGAAUCUGCGAAUUCUGCUGU, 0.24.
Regarding CGGGGCCACAGCAGAAGCGUUCACGUCGCGGCCCCUGUCAGAUUGUGGUGAAUCUGCGAAUUCUGCUGU, the self-cleavage turned out to be 0.182.
Regarding CGGGGCCACAGCAGAAGCGUUCACGUCGCGGCCCCUGUCAGAUUAUGGUGAAUCUGCGAAUUCUGCUGU, the self-cleavage was 0.252.
